This note sets out measurements from article PMC8329864, “Mycobacterium tuberculosis ferritin: a suitable workhorse protein for cryo-EM development” (Acta Crystallographica. Section D, Structural Biology, 2021).

The series deals with the molecule itself. As to the kind of experiment: SEC.

B1: bacterioferritin B (BfrB) from Mycobacterium tuberculosis (natural protein)
chain: MTEYEGPKTKFHALMQEQIHNEFTAAQQYVAIAVYFDSEDLPQLAKHFYSQAVEERNHAMMLVQHLLDRDLRVEIPGVDTVRNQFDRPREALALALDQERTVTDQVGRLTAVARDEGDFLGEQFMQWFLQEQIEEVALMATLVRVADRAGANLFELENFVAREVDVAPAASGAPHAAGGRL
notes: also called BrfB; mycobacterial ferritin; copies: 24
As for B1, the binding result was “binds”.
